Assay results: patent US20230048200

Target: Human type 1 atelo-collagen (UniProt P02452)
Sequence (P02452 179-1192, chain 1 of 2): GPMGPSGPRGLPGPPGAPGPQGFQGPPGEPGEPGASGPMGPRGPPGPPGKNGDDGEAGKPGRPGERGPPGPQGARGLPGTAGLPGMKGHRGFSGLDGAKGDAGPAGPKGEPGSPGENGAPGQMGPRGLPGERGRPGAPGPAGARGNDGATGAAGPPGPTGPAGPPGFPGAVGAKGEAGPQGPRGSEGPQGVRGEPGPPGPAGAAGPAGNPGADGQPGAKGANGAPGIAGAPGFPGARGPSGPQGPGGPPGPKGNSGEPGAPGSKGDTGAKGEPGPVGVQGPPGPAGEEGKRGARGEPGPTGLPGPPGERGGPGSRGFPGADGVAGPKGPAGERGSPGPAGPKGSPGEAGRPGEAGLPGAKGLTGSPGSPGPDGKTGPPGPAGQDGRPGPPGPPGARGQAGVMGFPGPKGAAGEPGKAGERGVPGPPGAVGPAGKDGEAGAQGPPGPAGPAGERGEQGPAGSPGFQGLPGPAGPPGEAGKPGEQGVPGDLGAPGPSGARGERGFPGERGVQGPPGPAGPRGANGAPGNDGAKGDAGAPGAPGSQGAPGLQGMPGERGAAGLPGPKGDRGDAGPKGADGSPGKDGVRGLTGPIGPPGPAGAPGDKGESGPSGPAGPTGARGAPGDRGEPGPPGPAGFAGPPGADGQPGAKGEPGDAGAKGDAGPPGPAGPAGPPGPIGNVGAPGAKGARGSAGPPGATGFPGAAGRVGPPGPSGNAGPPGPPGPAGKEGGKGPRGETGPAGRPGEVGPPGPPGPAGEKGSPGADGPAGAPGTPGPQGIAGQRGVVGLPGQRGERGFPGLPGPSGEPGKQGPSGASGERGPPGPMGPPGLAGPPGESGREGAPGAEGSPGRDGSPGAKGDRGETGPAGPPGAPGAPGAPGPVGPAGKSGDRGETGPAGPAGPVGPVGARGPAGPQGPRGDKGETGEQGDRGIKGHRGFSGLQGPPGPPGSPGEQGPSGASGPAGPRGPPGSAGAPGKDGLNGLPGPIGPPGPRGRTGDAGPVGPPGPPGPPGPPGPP
Sequence (chain, as listed by the source, chain 2 of 2): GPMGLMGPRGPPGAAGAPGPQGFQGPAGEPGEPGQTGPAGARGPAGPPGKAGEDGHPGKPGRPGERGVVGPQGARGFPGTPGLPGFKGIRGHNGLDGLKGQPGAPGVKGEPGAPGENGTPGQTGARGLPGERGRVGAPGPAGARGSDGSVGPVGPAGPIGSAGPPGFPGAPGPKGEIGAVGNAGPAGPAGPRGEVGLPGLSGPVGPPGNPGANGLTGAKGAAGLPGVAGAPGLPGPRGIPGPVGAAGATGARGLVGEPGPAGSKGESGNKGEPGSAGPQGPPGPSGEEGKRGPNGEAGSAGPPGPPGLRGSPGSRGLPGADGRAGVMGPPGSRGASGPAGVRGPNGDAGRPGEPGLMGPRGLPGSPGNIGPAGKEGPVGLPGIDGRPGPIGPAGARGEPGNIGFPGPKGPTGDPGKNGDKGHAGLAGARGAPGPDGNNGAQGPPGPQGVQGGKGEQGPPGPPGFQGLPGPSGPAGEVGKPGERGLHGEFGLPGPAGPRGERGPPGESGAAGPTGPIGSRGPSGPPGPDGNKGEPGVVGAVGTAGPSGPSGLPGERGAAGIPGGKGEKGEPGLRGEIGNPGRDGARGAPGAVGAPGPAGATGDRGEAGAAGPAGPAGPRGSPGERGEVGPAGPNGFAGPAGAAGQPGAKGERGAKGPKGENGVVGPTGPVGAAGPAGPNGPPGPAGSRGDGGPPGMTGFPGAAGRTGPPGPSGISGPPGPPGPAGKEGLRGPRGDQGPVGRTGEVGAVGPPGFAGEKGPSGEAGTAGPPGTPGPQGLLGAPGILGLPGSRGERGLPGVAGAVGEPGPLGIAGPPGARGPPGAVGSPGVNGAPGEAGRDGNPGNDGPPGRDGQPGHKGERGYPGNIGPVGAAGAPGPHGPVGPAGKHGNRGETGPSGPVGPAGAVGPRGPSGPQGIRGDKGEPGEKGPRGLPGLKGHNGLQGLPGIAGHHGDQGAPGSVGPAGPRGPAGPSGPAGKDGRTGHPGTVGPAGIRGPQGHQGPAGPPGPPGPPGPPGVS

matrix metalloproteinase-1 (MMP-1), activated with 2 mM APMA
reduction in the full length alpha1(I) and alpha2(I) chains (SDS-PAGE, band quantitation): an approximately 7.4-fold (over 80%) reduction in the full length of these chains when collagen was treated with MMP-1
